# Results reported in patent publication US20180057553A1, “CONJUGATE AND USE THEREOF” (The University of Tokyo, priority 2015, published 2018).
# Biological target: recombinant human TNF-alpha (Life Technologies) (human) (UniProt P01375)
# Assay: SPR (Biacore), Etanercept amine-coupled to chip, TNF-alpha as analyte
# recombinant human TNF-alpha (Life Technologies) (human), sequence (P01375 77-233 limits assumed): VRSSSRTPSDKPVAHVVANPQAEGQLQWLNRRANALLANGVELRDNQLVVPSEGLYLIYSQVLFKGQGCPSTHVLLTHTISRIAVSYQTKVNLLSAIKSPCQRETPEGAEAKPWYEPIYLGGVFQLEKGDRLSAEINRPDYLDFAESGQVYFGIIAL
substance,measurement,value
"Etanercept (soluble TNF receptor, product name Enbrel, Takeda Pharmaceutical Company) (Fc fusion)",Kd,0.313 nM
